# Patent publication US20250154231A1
# Like-named read-outs stand apart in the source and are kept apart here.
# Key:
# Experiment in all cases: cell-based or functional assay
# [1] = target: SARS-CoV-2 Omicron BA.1 spike (S) protein of the live isolate (SARS-CoV-2) (UniProt P0DTC2)
# [2] = target: SARS-CoV-2 Delta spike (S) protein (SARS-CoV-2) (UniProt P0DTC2)
# [3] = target: SARS-CoV-2 Alpha spike (S) protein (SARS-CoV-2) (UniProt P0DTC2)
# [4] = target: SARS-CoV-2 spike (S) protein, Omicron BA.4/5 (SARS-CoV-2) (UniProt P0DTC2)
# [5] = target: SARS-CoV-2 spike (S) protein, Omicron BA.1 (SARS-CoV-2) (UniProt P0DTC2)
# [6] = target: SARS-CoV-2 Victoria spike (S) protein (SARS-CoV-2) (UniProt P0DTC2)
# [7] = target: SARS-CoV-2 spike (S) protein, Omicron BA.1.1 (SARS-CoV-2) (UniProt P0DTC2)
# [8] = target: SARS-CoV-2 spike (S) protein, Omicron BA.4.6 (SARS-CoV-2) (UniProt P0DTC2)
# [9] = target: SARS-CoV-2 spike (S) protein, Victoria strain (SARS-CoV-2) (UniProt P0DTC2)
# [10] = target: SARS-CoV-2 spike (S) protein, Omicron BA.2 (SARS-CoV-2) (UniProt P0DTC2)
# [11] = target: SARS-CoV-2 Gamma spike (S) protein (SARS-CoV-2) (UniProt P0DTC2)
# [12] = target: SARS-CoV-2 spike (S) protein, Omicron BA.3 (SARS-CoV-2) (UniProt P0DTC2)
# [13] = target: SARS-CoV-2 Omicron BA.2 spike (S) protein (SARS-CoV-2) (UniProt P0DTC2)
# [14] = target: SARS-CoV-2 Omicron BA.1.1 spike (S) protein (SARS-CoV-2) (UniProt P0DTC2)
# [15] = target: SARS-CoV-2 Beta spike (S) protein (SARS-CoV-2) (UniProt P0DTC2)
# [16] = target: SARS-CoV-2 spike (S) protein, Omicron BA.2.75 (SARS-CoV-2) (UniProt P0DTC2)
# [17] = target: SARS-CoV-2 spike (S) protein, Omicron BA.2 (SARS-CoV-2) (UniProt P0DTC2); remark: listed apart in the source
# [18] = target: SARS-CoV-2 spike (S) protein, Omicron BJ.1 (SARS-CoV-2) (UniProt P0DTC2)
# [19] = target: SARS-CoV-2 spike (S) protein, Omicron BA.2.75 (SARS-CoV-2) (UniProt P0DTC2); remark: listed apart in the source
# [20] = target: SARS-CoV-2 spike (S) protein, Omicron BA.4/5 (SARS-CoV-2) (UniProt P0DTC2); remark: listed apart in the source
# [21] = target: SARS-CoV-2 spike (S) protein, Omicron BA.2.75.2 (SARS-CoV-2) (UniProt P0DTC2)
# [22] = target: SARS-CoV-2 spike (S) protein, Omicron BA.4.6 (SARS-CoV-2) (UniProt P0DTC2); remark: listed apart in the source
# [23] = target: SARS-CoV-2 spike (S) protein, Victoria strain (SARS-CoV-2) (UniProt P0DTC2); remark: listed apart in the source
# [24] = target: SARS-CoV-2 spike (S) protein, Omicron BA.2 (SARS-CoV-2) (UniProt P0DTC2); remark: listed apart in the source
# [25] = target: SARS-CoV-2 spike (S) protein, Omicron BA.2.3.20 (SARS-CoV-2) (UniProt P0DTC2)
# [26] = target: SARS-CoV-2 spike (S) protein, Omicron BA.4/5 (SARS-CoV-2) (UniProt P0DTC2); remark: listed apart in the source
# [27] = target: SARS-CoV-2 spike (S) protein, Omicron BA.1 (SARS-CoV-2) (UniProt P0DTC2); remark: listed apart in the source
# [28] = target: SARS-CoV-2 spike (S) protein, Omicron BA.1.1 (SARS-CoV-2) (UniProt P0DTC2); remark: listed apart in the source
# [29] = target: SARS-CoV-2 spike (S) protein, Victoria strain (SARS-CoV-2) (UniProt P0DTC2); remark: listed apart in the source
# [30] = target: SARS-CoV-2 spike (S) protein, Omicron BA.3 (SARS-CoV-2) (UniProt P0DTC2); remark: listed apart in the source
# Sequence of AZD8895 (antibody) (VH): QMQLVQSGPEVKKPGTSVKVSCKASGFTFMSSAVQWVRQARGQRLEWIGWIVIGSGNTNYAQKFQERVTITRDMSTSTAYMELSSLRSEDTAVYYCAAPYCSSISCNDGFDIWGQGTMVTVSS
# Sequence of AZD8895 (antibody) (VL): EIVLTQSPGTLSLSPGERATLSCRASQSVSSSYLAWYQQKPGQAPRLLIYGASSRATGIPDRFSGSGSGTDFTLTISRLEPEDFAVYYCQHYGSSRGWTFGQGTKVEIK
Substance,"IC50, authentic virus neutralization [1] [mg/L]","IC50, authentic virus neutralization [2] [mg/L]","IC50, authentic virus neutralization [3] [mg/L]","IC50, pseudoviral neutralization [4] [mg/L]",pseudovirus neutralisation IC50 [4] [mg/L],"IC50, pseudoviral neutralization [5] [mg/L]",pseudovirus neutralisation IC50 [5] [mg/L],"IC50, authentic virus neutralization [6] [mg/L]","IC50, pseudoviral neutralization [7] [mg/L]",pseudovirus neutralisation IC50 [7] [mg/L],"IC50, pseudoviral neutralization [8] [mg/L]","IC50, pseudoviral neutralization [9] [mg/L]",pseudovirus neutralisation IC50 [9] [mg/L],"IC50, pseudoviral neutralization [10] [mg/L]",pseudovirus neutralisation IC50 [10] [mg/L],"IC50, authentic virus neutralization [11] [mg/L]","IC50, pseudoviral neutralization [12] [mg/L]",pseudovirus neutralisation IC50 [12] [mg/L],"IC50, authentic virus neutralization [13] [mg/L]",pseudovirus neutralisation IC50 [16] [mg/L],other results
AZD8895 (antibody),1.15,0.003,0.011,> 10,> 10,0.246,0.246,0.005,0.1,0.1,> 10,0.001,0.001,1.33,1.33,0.046,> 10,> 10,7.7,0.008,"IC50, authentic virus neutralization [14]: 6.08 mg/L; IC50, authentic virus neutralization [15]: 0.046 mg/L; pseudovirus neutralisation IC50 [17]: 1.99 mg/L; IC50, pseudoviral neutralization [18]: 0.114 mg/L; IC50, pseudoviral neutralization [19]: 0.008 mg/L; IC50, pseudoviral neutralization [20]: > 10 mg/L; IC50, pseudoviral neutralization [21]: > 10 mg/L; IC50, pseudoviral neutralization [22]: > 10 mg/L; IC50, pseudoviral neutralization [23]: 0.001 mg/L; IC50, pseudoviral neutralization [24]: 1.33 mg/L; IC50, pseudoviral neutralization [25]: 0.007 mg/L"
Ly-CoV1404 (antibody),–,–,–,0.002,–,0.002,–,–,0.001,–,0.001,0.001,–,0.001,–,–,0.002,–,–,0.002,pseudovirus neutralisation IC50 [26]: 0.002 mg/L; pseudovirus neutralisation IC50 [27]: 0.002 mg/L; pseudovirus neutralisation IC50 [28]: 0.001 mg/L; pseudovirus neutralisation IC50 [29]: 0.001 mg/L; pseudovirus neutralisation IC50 [17]: 0.001 mg/L; pseudovirus neutralisation IC50 [30]: 0.002 mg/L
S309 (antibody),0.256,0.113,0.078,0.689,1.04,0.113,0.094,0.04,0.142,0.138,1.03,0.079,0.13,0.638,0.638,0.076,0.311,0.228,5.04,0.202,"IC50, authentic virus neutralization [14]: 1.12 mg/L; IC50, authentic virus neutralization [15]: 0.082 mg/L; pseudovirus neutralisation IC50 [26]: 0.689 mg/L; pseudovirus neutralisation IC50 [27]: 0.113 mg/L; pseudovirus neutralisation IC50 [28]: 0.142 mg/L; pseudovirus neutralisation IC50 [29]: 0.079 mg/L; pseudovirus neutralisation IC50 [30]: 0.311 mg/L; IC50, pseudoviral neutralization [18]: 0.431 mg/L; IC50, pseudoviral neutralization [19]: 0.202 mg/L; IC50, pseudoviral neutralization [20]: 0.689 mg/L; IC50, pseudoviral neutralization [21]: 0.465 mg/L; IC50, pseudoviral neutralization [22]: 1.03 mg/L; IC50, pseudoviral neutralization [23]: 0.079 mg/L; IC50, pseudoviral neutralization [24]: 0.638 mg/L; IC50, pseudoviral neutralization [25]: 0.977 mg/L"
